Data reported in US20240173421A1.
Where two headings read alike, the source gives them in different places.

Legend:
[1] = target: Human H131 FcγRIIa (Example 8) (human) (UniProt P12318); test: BLI, receptor on SAX sensor
[2] = target: Human F158 FcγRIIIa (Example 8) (human) (UniProt P08637); test: BLI, receptor on SAX sensor
[3] = target: Human FcγRI (Example 8) (human) (UniProt P12314); test: BLI, receptor on SAX sensor
[4] = target: Human V158 FcγRIIIa (Example 8) (human) (UniProt P08637); test: BLI, receptor on SAX sensor
[5] = target: CD16a (FcγRIIIa) on Jurkat NFAT reporter cells (UniProt P08637); test: cell-based or functional assay
[6] = target: Human F158 FcγRIIIa (Example 8) (human) (UniProt P08637); test: BLI; ratio to KD of the unconjugated antibody
[7] = target: Human FcγRI (Example 8) (human) (UniProt P12314); test: BLI; ratio to KD of the unconjugated antibody
[8] = target: Human V158 FcγRIIIa (Example 8) (human) (UniProt P08637); test: BLI; ratio to KD of the unconjugated antibody
[9] = target: CD16a (FcγRIIIa) on Jurkat NFAT reporter cells (UniProt P08637)
[10] = target: CD16a (FcγRIIIa) on Jurkat NFAT reporter cells (UniProt P08637); remark: listed apart in the source

Sequence of CD16a (FcγRIIIa) on Jurkat NFAT reporter cells (P08637 17-254 limits assumed): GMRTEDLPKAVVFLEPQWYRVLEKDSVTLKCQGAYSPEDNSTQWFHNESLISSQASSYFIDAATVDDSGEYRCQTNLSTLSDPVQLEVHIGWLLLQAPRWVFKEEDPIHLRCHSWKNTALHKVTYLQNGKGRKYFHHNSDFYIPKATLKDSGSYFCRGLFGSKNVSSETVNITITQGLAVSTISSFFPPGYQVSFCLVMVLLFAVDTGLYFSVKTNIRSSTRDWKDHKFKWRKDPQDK

Substance: Anti-HER2 S239D A330L I332E (antibody)
- Kd [1]: 2100 nM
- koff [1]: 0.38 s⁻¹
- kon [1]: 190000 M⁻¹ s⁻¹
- Kd [2]: 95 nM
- koff [2]: 0.049 s⁻¹
- kon [2]: 520000 M⁻¹ s⁻¹
- Kd [3]: 0.12 nM
- koff [3]: 6.8e-05 s⁻¹
- kon [3]: 590000 M⁻¹ s⁻¹
- Kd [4]: 37 nM
- koff [4]: 0.028 s⁻¹
- kon [4]: 750000 M⁻¹ s⁻¹
- CD16a NFAT EC50 [5]: 0.7 ng/mL

Substance: Anti-HER2 S239D A330L I332E-mcPEG12(10) (antibody)
- Kd [2]: 3800 nM
- koff [2]: 0.077 s⁻¹
- kon [2]: 20000 M⁻¹ s⁻¹
- Kd [3]: 1.2 nM
- koff [3]: 0.00011 s⁻¹
- kon [3]: 95000 M⁻¹ s⁻¹
- Kd [4]: 2900 nM
- koff [4]: 0.085 s⁻¹
- kon [4]: 29000 M⁻¹ s⁻¹
- KD Fold change [6]: 40 fold
- KD Fold change [7]: 10 fold
- KD Fold change [8]: 78.4 fold
- CD16a NFAT EC50 [5]: 83.5 ng/mL

Substance: Anti-HER2 S239D I332E (antibody)
- Kd [3]: 0.1 nM
- CD16a NFAT EC50 [5]: 1.5 ng/mL

Substance: Anti-HER2 S239D I332E-mcPEG12(8) (antibody)
- Kd [3]: 1 nM

Substance: Anti-HER2 S239D I332E-mcPEG12(10) (antibody)
- CD16a NFAT EC50 [5]: 71.2 ng/mL

Substance: Anti-HER2-mcPEG12(8) (antibody)
- Kd [3]: 9 nM
- CD16a NFAT EC50 [5]: > 2000 ng/mL

Substance: obinituzumab-AF (antibody)
- EC50 (read off the curve), FcγRIIIa NFAT reporter assay [9]: 0.7 ng/mL

Substance: obinituzumab-WT (antibody)
- EC50 (read off the curve), FcγRIIIa NFAT reporter assay [9]: 7 ng/mL

Substance: rituximab-AF (antibody)
- EC50 (read off the curve), FcγRIIIa NFAT reporter assay [10]: 1 ng/mL

Substance: rituximab-WT (antibody)
- EC50 (read off the curve), FcγRIIIa NFAT reporter assay [10]: 8 ng/mL
